Experiment [1] addresses mouse METAP1(1-59) (mouse) (UniProt Q8BP48). Nature of the experiment: other fluorescence titration.
For experiment [2], the target named is mouse METAP1(1-79) (mouse) (UniProt Q8BP48). Nature of the experiment: other fluorescence titration.

In experiment [1], “mouse ZNG1 N-terminal peptide, synthetic” returned a Kd of 100 nM and a stoichiometry N of 1. In experiment [2], this substance had a Kd of 100 nM and a stoichiometry N of 1.

As usually defined, the Kd is the concentration at which binding is half-saturated. Low values mean tighter binding, high ones weaker binding. For orientation: stoichiometry N means a count of units in the complex or per binding partner.
